Measurements published in paper PMC7822592, “The half-life of the bone-derived hormone osteocalcin is regulated through O-glycosylation in mice, but not in humans” (eLife, 2020).
No end group written: not given here. O‑glycan = not defined here

Assay: In vivo half-life assay, serum OCN after intraperitoneal injection in Bglap-/- mice
Set-up: species or system mouse
Settings: 40 ng/g i.p.; for serum OCN: ELISA; for in vivo half-life: estimated from declining phase after maximum at 30 min, serum ELISA
Description: For in vivo half-life assay, Bglap-/- male mice were injected intraperitoneally with 40 or 80 ng/g of body weight of mouse O-glycosylated ucOCN or non-glycosylated ucOCN, serum OCN level was analyzed at indicated time points using total mouse OCN ELISA. In all ex vivo and in vivo studies, mouse or human proteins were prepared in saline solution (0.9% NaCl) containing BSA (35 mg/ml) as a carrier.

## O-gly ucOCN: O-glycosylated uncarboxylated mouse osteocalcin produced and purified from HEK293 as Fc fusion, released by thrombin (YLGASVPS(O‑glycan)PDPLEPTREQCELNPACDELSDQYGLKTAYKRIYGITI; ends and bridges not checked; also: O-glycosylated (HexNAc, Hex, NANA); UniProt P86546 50-95, looked up)
Bglap-/- male mice fasted 16 hr, 15 min, mouse 1
  serum OCN: 24.4 ng/mL
Bglap-/- male mice fasted 16 hr, 15 min, mouse 2
  serum OCN: 19.4 ng/mL
Bglap-/- male mice fasted 16 hr, 15 min, mouse 3
  serum OCN: 16.3 ng/mL
Bglap-/- male mice fasted 16 hr, 15 min, mouse 4
  serum OCN: 21.1 ng/mL
Bglap-/- male mice fasted 16 hr, 15 min, mouse 5
  serum OCN: 17.9 ng/mL
Bglap-/- male mice fasted 16 hr, 30 min, mouse 1
  serum OCN: 30.7 ng/mL
Bglap-/- male mice fasted 16 hr, 30 min, mouse 2
  serum OCN: 26.9 ng/mL
Bglap-/- male mice fasted 16 hr, 30 min, mouse 3
  serum OCN: 24.6 ng/mL
Bglap-/- male mice fasted 16 hr, 30 min, mouse 4
  serum OCN: 23.6 ng/mL
Bglap-/- male mice fasted 16 hr, 30 min, mouse 5
  serum OCN: 20.9 ng/mL
Bglap-/- male mice fasted 16 hr, 60 min, mouse 1
  serum OCN: 27.5 ng/mL
Bglap-/- male mice fasted 16 hr, 60 min, mouse 2
  serum OCN: 23.9 ng/mL
Bglap-/- male mice fasted 16 hr, 60 min, mouse 3
  serum OCN: 23.9 ng/mL
Bglap-/- male mice fasted 16 hr, 60 min, mouse 4
  serum OCN: 20.4 ng/mL
Bglap-/- male mice fasted 16 hr, 60 min, mouse 5
  serum OCN: 19.0 ng/mL
Bglap-/- male mice fasted 16 hr, 90 min, mouse 1
  serum OCN: 26.3 ng/mL
Bglap-/- male mice fasted 16 hr, 90 min, mouse 2
  serum OCN: 20.0 ng/mL
Bglap-/- male mice fasted 16 hr, 90 min, mouse 3
  serum OCN: 21.1 ng/mL
Bglap-/- male mice fasted 16 hr, 90 min, mouse 4
  serum OCN: 17.6 ng/mL
Bglap-/- male mice fasted 16 hr, 90 min, mouse 5
  serum OCN: 15.7 ng/mL
Bglap-/- male mice fasted 16 hr, 120 min, mouse 1
  serum OCN: 21.6 ng/mL
Bglap-/- male mice fasted 16 hr, 120 min, mouse 2
  serum OCN: 17.9 ng/mL
Bglap-/- male mice fasted 16 hr, 120 min, mouse 3
  serum OCN: 18.4 ng/mL
Bglap-/- male mice fasted 16 hr, 120 min, mouse 4
  serum OCN: 17.6 ng/mL
Bglap-/- male mice fasted 16 hr, 120 min, mouse 5
  serum OCN: 15.6 ng/mL
Bglap-/- male mice fasted 16 hr
  in vivo half-life: 182 min
Bglap-/- male mice fasted 16 hr, listed as O-glycosylated ucOCN
  in vivo half-life: ~ 182 min
Fed Bglap-/- male mice, 15 min, mouse 1
  serum OCN: 46.2 ng/mL
Fed Bglap-/- male mice, 15 min, mouse 2
  serum OCN: 44.9 ng/mL
Fed Bglap-/- male mice, 15 min, mouse 3
  serum OCN: 53.1 ng/mL
Fed Bglap-/- male mice, 15 min, mouse 4
  serum OCN: 55.0 ng/mL
Fed Bglap-/- male mice, 15 min, mouse 5
  serum OCN: 58.1 ng/mL
Fed Bglap-/- male mice, 15 min, mouse 6
  serum OCN: 56.8 ng/mL
Fed Bglap-/- male mice, 15 min, mouse 7
  serum OCN: 44.9 ng/mL
Fed Bglap-/- male mice, 15 min, mouse 8
  serum OCN: 33.3 ng/mL
Fed Bglap-/- male mice, 15 min, mouse 9
  serum OCN: 33.3 ng/mL
Fed Bglap-/- male mice, 15 min, mouse 10
  serum OCN: 59.4 ng/mL
Fed Bglap-/- male mice, 30 min, mouse 1
  serum OCN: 51.1 ng/mL
Fed Bglap-/- male mice, 30 min, mouse 2
  serum OCN: 72.5 ng/mL
Fed Bglap-/- male mice, 30 min, mouse 3
  serum OCN: 64.1 ng/mL
Fed Bglap-/- male mice, 30 min, mouse 4
  serum OCN: 65.1 ng/mL
Fed Bglap-/- male mice, 30 min, mouse 5
  serum OCN: 69.7 ng/mL
Fed Bglap-/- male mice, 30 min, mouse 6
  serum OCN: 73.2 ng/mL
Fed Bglap-/- male mice, 30 min, mouse 7
  serum OCN: 40.4 ng/mL
Fed Bglap-/- male mice, 30 min, mouse 8
  serum OCN: 59.8 ng/mL
Fed Bglap-/- male mice, 30 min, mouse 9
  serum OCN: 47.5 ng/mL
Fed Bglap-/- male mice, 30 min, mouse 10
  serum OCN: 72.5 ng/mL
Fed Bglap-/- male mice, 60 min, mouse 1
  serum OCN: 25.1 ng/mL
Fed Bglap-/- male mice, 60 min, mouse 2
  serum OCN: 44.3 ng/mL
Fed Bglap-/- male mice, 60 min, mouse 3
  serum OCN: 31.5 ng/mL
Fed Bglap-/- male mice, 60 min, mouse 4
  serum OCN: 48.0 ng/mL
Fed Bglap-/- male mice, 60 min, mouse 5
  serum OCN: 45.3 ng/mL
Fed Bglap-/- male mice, 60 min, mouse 6
  serum OCN: 33.8 ng/mL
Fed Bglap-/- male mice, 60 min, mouse 7
  serum OCN: 15.4 ng/mL
Fed Bglap-/- male mice, 60 min, mouse 8
  serum OCN: 40.4 ng/mL
Fed Bglap-/- male mice, 60 min, mouse 9
  serum OCN: 23.7 ng/mL
Fed Bglap-/- male mice, 60 min, mouse 10
  serum OCN: 29.5 ng/mL
Fed Bglap-/- male mice, 90 min, mouse 1
  serum OCN: 11.0 ng/mL
Fed Bglap-/- male mice, 90 min, mouse 2
  serum OCN: 19.1 ng/mL
Fed Bglap-/- male mice, 90 min, mouse 3
  serum OCN: 10.0 ng/mL
Fed Bglap-/- male mice, 90 min, mouse 4
  serum OCN: 23.7 ng/mL
Fed Bglap-/- male mice, 90 min, mouse 5
  serum OCN: 20.1 ng/mL
Fed Bglap-/- male mice, 90 min, mouse 6
  serum OCN: 15.5 ng/mL
Fed Bglap-/- male mice, 90 min, mouse 7
  serum OCN: 7.2 ng/mL
Fed Bglap-/- male mice, 90 min, mouse 8
  serum OCN: 19.6 ng/mL
Fed Bglap-/- male mice, 90 min, mouse 9
  serum OCN: 11.8 ng/mL
